Data: patent US20210340233A1 (CRESCENDO BIOLOGICS, published 2021)
Positions count from the first letter of the chain named.

B1: trispecific molecule (SEQ ID NO. 17) including Humabody ® 1 (bispecific antibody)
chain: EVQLVESGGGVVQPGRSLRLSCAASGFSFSGYGMHWVRQAPGKGLEWVAYISYDGSNKYYADSVKGRFTISRDNSKNTLYLQMNSLRAEDTAVYYCAKDPAWGLRLGESSSYDFDIWGQGTMVTVSSGGGGSGGGGSGGGGSGGGGSGGGGSGGGGSEVQLVESGGGLVQPGGSLRLSCAASGFTLSNYWMNWVRQAPGKGLEWVANINQDGSERYYVDSVKGRFTISRDNAKNSLYLQMNSLRAEDTAVYYCARGGEGYGVDHYGLDVSGQGTTVTVSSGGGGSGGGGSGGGGSGGGGSGGGGSGGGGSEVQLVESGGGLVQPGRSLRLSCAASGFTFHHYAMHWVRQAPGKGLEWVSGISWNGNKITYADSVKGRFTISRDNAKNSLYLQMNSLRAEDTALYYCVRDSSLFIVGAPTFEHWGRGTLVTVSSGGGGSGGGGSGGGGSGGGGS
notes: 1 at the C-terminal end; also called trivalent compound; trivalent construct
B2: Variant of SEQ ID NO. 1 with E111→D and R115→Q (VHH)
VHH: EVQLVESGGGLVQPGRSLRLSCAASGFTFHHYAMHWVRQAPGKGLEWVSGISWNGNKITYADSVKGRFTISRDNAKNSLYLQMNSLRAEDTALYYCVRDSSLFIVGAPTFDHWGQGTLVTVSS
notes: Human single VH domain
B3: Humabody ® 1 (SEQ ID NO. 1) (VHH)
VHH: B2 VHH with D111E, Q115R
notes: Human single VH domain antibody from transgenic mice, not camelid; also called Humabody ® 1 VH; Humabody ® 1-ctag

Assays:
[1] = biological target: mouse serum albumin (MSA) (mouse, UniProt P07724 25-608); experiment: BLI (Octet RED384), albumin amine-coupled to AR2G biosensor
mouse serum albumin (MSA), sequence (P07724 25-608 limits assumed): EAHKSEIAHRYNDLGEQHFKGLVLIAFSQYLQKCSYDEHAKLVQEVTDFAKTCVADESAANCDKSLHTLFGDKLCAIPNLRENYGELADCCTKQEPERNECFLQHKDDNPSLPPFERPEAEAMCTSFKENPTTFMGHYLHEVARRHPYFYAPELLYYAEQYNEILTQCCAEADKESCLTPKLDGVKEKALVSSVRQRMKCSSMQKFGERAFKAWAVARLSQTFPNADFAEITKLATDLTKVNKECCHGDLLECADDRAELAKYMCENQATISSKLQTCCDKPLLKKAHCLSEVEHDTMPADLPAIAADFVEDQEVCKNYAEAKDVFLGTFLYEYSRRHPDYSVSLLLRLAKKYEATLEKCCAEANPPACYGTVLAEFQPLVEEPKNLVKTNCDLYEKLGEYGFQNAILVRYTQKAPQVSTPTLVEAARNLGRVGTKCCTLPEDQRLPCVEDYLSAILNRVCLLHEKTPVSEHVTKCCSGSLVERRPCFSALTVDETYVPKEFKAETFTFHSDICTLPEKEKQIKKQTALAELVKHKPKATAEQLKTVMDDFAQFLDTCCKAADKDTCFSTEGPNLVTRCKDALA
Experimental: (§1) Binding studies with human, cyno and mouse serum albumin were carried out using the FortéBio OCTET RED384 instrument. Serum albumin (HSA, CSA, MSA) were coupled to AR2G biosensors by amine coupling using the amine reagent coupling kit (2nd generation, FortéBio). Briefly AR2G biosensors were rehydrated in water and then activated using EDC/sNHS reagents over 10 minutes. The activated biosensors were dipped into wells containing diluted serum albumin (HSA, CSA, MSA) to 10 ug/ml in 10 mM sodium acetate pH 5.0 for 10 minutes before free active sites were quenched using 1M Ethanolamine pH 8.5 over 10 minutes. These were then dipped into 10 mM glycine pH 2.5 to stabilise the surface. […] Anomalous or poorly fitting curves were excluded from the analysis.

[2] = biological target: T1, Human Serum Albumin (HSA) (human, UniProt P02768 25-609); experiment: BLI (Octet RED384), albumin amine-coupled to AR2G biosensor, 1:1 model
T1 construct: Recombinant HSA from Sigma A9731 is named only for immunisation
Experimental: as §1

Cyno Serum Albumin (CSA) [3] = biological target: T2, Cyno Serum Albumin (CSA) (cynomolgus, UniProt A2V9Z4 25-608); experiment: as above
T2 construct: Bought protein; also called cynomolgus serum albumin
Experimental: as §1

[4] = biological target: T1, Human Serum Albumin (HSA); experiment: BIAcore (Affinity), pH5; pH 5
Cyno Serum Albumin (CSA) [5] = biological target: T2, Cyno Serum Albumin (CSA); experiment: BIAcore (Affinity), pH5; pH 5
[6] = biological target: T1, Human Serum Albumin (HSA); experiment: BIAcore (Affinity), pH7; pH 7
Cyno Serum Albumin (CSA) [7] = biological target: T2, Cyno Serum Albumin (CSA); experiment: BIAcore (Affinity), pH7; pH 7

| Binder | binding result [1] | Kd [2] | koff [2] | kon [2] | Kd (Cyno Serum Albumin (CSA) [3]) | koff (Cyno Serum Albumin (CSA) [3]) | kon (Cyno Serum Albumin (CSA) [3]) | Kd [4] | koff [4] | kon [4] | Kd (Cyno Serum Albumin (CSA) [5]) | koff (Cyno Serum Albumin (CSA) [5]) | kon (Cyno Serum Albumin (CSA) [5]) | Kd [6] | koff [6] | kon [6] | Kd (Cyno Serum Albumin (CSA) [7]) | koff (Cyno Serum Albumin (CSA) [7]) | kon (Cyno Serum Albumin (CSA) [7]) |
| --- | --- | --- | --- | --- | --- | --- | --- | --- | --- | --- | --- | --- | --- | --- | --- | --- | --- | --- | --- |
| B1 | no binding (tested: top concentration 1500 nM) | 4.83 nM | 0.00108 s⁻¹ | 238000 M⁻¹ s⁻¹ | 102 nM | 0.0147 s⁻¹ | 144000 M⁻¹ s⁻¹ |  |  |  |  |  |  |  |  |  |  |  |  |
| B2 |  |  |  |  |  |  |  | 13 nM | 0.00319 s⁻¹ | 242000 M⁻¹ s⁻¹ | 99 nM | 0.0241 s⁻¹ | 244000 M⁻¹ s⁻¹ | 6 nM | 0.00162 s⁻¹ | 255000 M⁻¹ s⁻¹ | 67 nM | 0.0168 s⁻¹ | 250000 M⁻¹ s⁻¹ |
| B3 |  |  |  |  |  |  |  | 12 nM |  |  | 96 nM |  |  | 3 nM |  |  | 33 nM |  |  |
